Laboratory results as given in article PMC4906797.

Test system: C/C=C/C=C/C(=O)CC(=O)SCCNC(C)=O
Assay: purified protein

Question: For “LovB (lovastatin nonaketide synthase) (Aspergillus terreus)”, which kcat is on record?
Answer: Its kcat is 3.27 s⁻¹.
